Assay results published in the RNAGym collection of RNA variant scans (doi:10.1073/pnas.2313332121).
Variants at the floor of the assay were thinned out.

B1: TPR 5TU (parent)
chain: GGAUCUUCUCGAUCUAACAAAAAAGACAAAUCUGCCACAAAGCUUGAGAGCAUCUUCGGAUGCAGAGGCGGCAGCCUUCGGUGGCGCGAUAGCGCCAACGUUCUCAACUAUGACACGCAAAACGCGUGCUCCGUUGAAUGGAGUUUAUCAUG

Variants of: B1
Assay: polymerase ribozyme fitness, log enrichment relative to wild type (log ratio); higher = more active; in vitro selection for triplet polymerase activity
How it was run: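 Mutant libraries of each subunit of a heterodimeric triplet polymerase ribozyme were built by PCR and transcribed. Each library went through one round of in vitro selection in triplicate: annealing with biotinylated primer, partner subunit and triplets, frozen incubation at −7 °C, gel excision of extended constructs, streptavidin-bead capture and RT-PCR. Input and output libraries were Illumina-sequenced; only genotypes with ≥10 input reads and ≥1 read per output were kept. Fitness is log2(genotype enrichment/wild-type enrichment), using inverse-variance-weighted replicate averages.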

| Variant | polymerase ribozyme fitness (log ratio) |
| --- | --- |
| C36A C93A C105G C125A | ≤ -4.2 |
| C35G G88A C95U U101A G141C | -4.12 |
| C36U A107G U151A | ≤ -4.2 |
| C35G C36G G128U | ≤ -4.2 |
| C36A C96A | ≤ -4.2 |
| C35U A98G C99A U101C G141A | ≤ -4.2 |
| C35G G58A G59U A60U A73C C116G C123A G140C | ≤ -4.2 |
| C36A C54G U61G C79A G80A U102C | ≤ -4.2 |
| C35U U61A G86A C125G G141U | ≤ -4.2 |
| C35U A60G G136U | -3.08 |
| C36A G92A | -3.98 |
| C35U A40C U45G G50A G88U A91G G140C | ≤ -4.2 |
| C35A C57U C85U C118U G128A G152U | -3.96 |
| C35U U82C | 0.243 |
| C36A C63U | -4.08 |
| C36U A47G G68C G133C | ≤ -4.2 |
| C36A G67C G68C A73U C87A U148C | ≤ -4.2 |
| C35U C87U A107G G126A G136U G140U | ≤ -4.2 |
| C35U C85G C132U | -3.12 |
| C36A U44A G62C C93U U135G U139C U144A | ≤ -4.2 |
| C35U U146C | 0.279 |
| C35U C96U U101C C118U | -0.95 |
| C35G C87U | -4.18 |
| C35G A37C A52G G86U A97G | -4.2 |

| Variant | polymerase ribozyme fitness (log ratio) |
| --- | --- |
| C35U C72U U82G C96U A106G G112A | ≤ -4.2 |
| C35U U44G C85U C116G C123A | -3.89 |
| C35U C54U U55A C116G | 0.41 |
| C36U A91U | ≤ -4.2 |
| C35U C116U A120G | -0.528 |
| C35G G50C U56A A64U G133C U148G | ≤ -4.2 |
| C36U C93A G117U | -3.25 |
| C36G C51U C54U C93G | ≤ -4.2 |
| C35U G94U | -0.729 |
| C35G C96U | -4.18 |
| C36G U56A A98G | -3.71 |
| C35U A49C G59A C96A U148G A150C | ≤ -4.2 |
| C36U C51G A107U G128A U139G | ≤ -4.2 |
| C36U C51G C76G G81C A107G G143A | ≤ -4.2 |
| C35U G133U | -3.79 |
| C36A U77G G81C G92U A115U G136C | ≤ -4.2 |
| C36A U82G U135C U145G G152U | -3.98 |
| C36A G48A C93U A113U C118G U144G A150U | ≤ -4.2 |
| C36A G42C U55A A66C C69U C105G A122U G126A A142C | ≤ -4.2 |
| C35U A142G | -1.79 |
| C36U C87U G143C | -3.81 |
| C36A A97U U101C U139A | ≤ -4.2 |
| C35U C51G G71U C131U | ≤ -4.2 |
| C35U C54G C85A | -3.81 |

| Variant | polymerase ribozyme fitness (log ratio) |
| --- | --- |
| C35A U45A U101A | -4.13 |
| C35U A47U U148A A150U | ≤ -4.2 |
| C36A C85U A98G C125A | ≤ -4.2 |
| C35U U53A U55A C57G G70A G84A C93A | ≤ -4.2 |
| C36G U130C | -3.89 |
| C35U A91G G117U A142U | ≤ -4.2 |
| C35U G42C C76A C93A G117C | ≤ -4.2 |
| C35G G58C G92U C125G A150U | ≤ -4.2 |
| C36G C105U | -3.04 |
| C35G U82A G94U G126A A138U | ≤ -4.2 |
| C35U A39C U56C C63U A110C A115G A121G G126A | ≤ -4.2 |
| C35U U56G U134A | -2.9 |
| C35U U56A C95A C105U G126C | -1.08 |
| C35G G74A U90A C95U | ≤ -4.2 |
| C35U A41C U56A C76U G88U C105U | ≤ -4.2 |
| C36A G70U G80U C105U | -0.569 |
| C35U C51U A52C C76G C93G A115U | ≤ -4.2 |
| C36G C57G C72G C118U | ≤ -4.2 |
| C36U A37G U53A C54U C87G | ≤ -4.2 |
| C35U C93G | -3.19 |
| C35U U135G | -3.62 |
| C35U U135A | -0.972 |
| C35A C76A | -4.08 |
| C35A C76U | -3.95 |

| Variant | polymerase ribozyme fitness (log ratio) |
| --- | --- |
| C36A G84A | -3.37 |
| C35U A97G U134G U144G | -2.34 |
| C35U G92C U135C | -2.73 |
| C36U C87U | -1.6 |
| C36U A64G G94A A110G | -4.2 |
| C36U C93U C96G C114G C116A A138C U139G U148C G152A | -4.1 |
| C35G G94C U101C A115C | ≤ -4.2 |
| C35A G86A | ≤ -4.2 |
| C35A G59U C69G | -2.14 |
| C35U C87G | -3.84 |
| C35U A52G | -0.53 |
| C35A G70A C79U G81A | ≤ -4.2 |
| C35G G71A C96G U139G | -3.91 |
| C36U C85U G124C | -2.46 |
| C36G C87U A106U | ≤ -4.2 |
| C35U C95A C105G | -2.51 |
| C35U A52G C76A A89C U145A | -3.45 |
| C35A G86U C87G A97U C105U A119U A150C | ≤ -4.2 |
| C35U G59C | 0.0057 |
| C36U C87A G117U | ≤ -4.2 |
| C35G C79A G83A A121U | ≤ -4.2 |
| C35U G117C C118U | -1.01 |
| C35U A60G C79U G86C C93G G94A U104C | ≤ -4.2 |
| C35G A49U G124C | ≤ -4.2 |

| Variant | polymerase ribozyme fitness (log ratio) |
| --- | --- |
| C35G G58C C75G C76U A89U C95G C108A A137C | ≤ -4.2 |
| C35U A40U U55A C99A U101G G152A | ≤ -4.2 |
| C35G U53G A64C C79G U109A A115U G128C A142G | ≤ -4.2 |
| C36U A66C C69A U78G | ≤ -4.2 |
| C35A A107U C108U | -3.61 |
| C35U A52U C95G A106U A107G C118G | ≤ -4.2 |
| C35G U55A C85U | ≤ -4.2 |
| C35G C95G A97C C114G G124A A138G | ≤ -4.2 |
| C36A A150U | -4.01 |
| C36U A52U | -1.56 |
| C35U G50U G83U C87A A115C C118G | ≤ -4.2 |
| C35U C95A | -0.608 |
| C35U C125A U134C | -0.129 |
| C35U C57G G86U G133A | -3.89 |
| C35U U56A G143C | -2.48 |
| C35A G50C G86U C118A | ≤ -4.2 |
| C36A C51U G68A C85G A97U | ≤ -4.2 |
| C35U G92A C96G A98C | -3.23 |
| C35A U53A G62A | ≤ -4.2 |
| C36G G80U C85U C87A U109G U139C A142G | ≤ -4.2 |
| C35U U55A U56A G92A A110U U135A G152C | ≤ -4.2 |
| C36U A37U A73G A91U C149U G152U | ≤ -4.2 |
| C36G A49C G58A G70C U82G A98U U104A A106G | ≤ -4.2 |
| C35A C54G G83A C125A | ≤ -4.2 |

| Variant | polymerase ribozyme fitness (log ratio) |
| --- | --- |
| C36A G84U U102A C103U U127C | ≤ -4.2 |
| C35U U77A C149A | ≤ -4.2 |
| C35G U55A G58A G86U A147U | -4.06 |
| C35U G88C C103U | ≤ -4.2 |
| C35U G74U G83C A107C G126A U148C | ≤ -4.2 |
| C36U A142C | -2.05 |
| C36A C76U | ≤ -4.2 |
| C36U A60G C87A G88C G141C | ≤ -4.2 |
| C35G C63A C93U | -4.16 |
| C35U G84U A89U A97G G143A | -2.66 |
| C35A G62C U109G A122U A142C | ≤ -4.2 |
| C35U C57A U61A G67A C95A C103A C116U | ≤ -4.2 |
| C35U C63A | -0.573 |
| C35U G80A A91G G136A | -3.57 |
| C35U G58A C95U | -0.16 |
| C36A C87U | -3.89 |
| C36A A39G G59U C85A A98U A107C | ≤ -4.2 |
| C35U C57G C85A G124A A138C U139A A142C U144G | ≤ -4.2 |
| C35U C43A A60C U101G | ≤ -4.2 |
| C35G C75U A91U U148C A150G | ≤ -4.2 |
| C35A G42A A91U | -3.84 |
| C35U G117A U144G A147C | -0.649 |
| C35U G86A C105A A137U | ≤ -4.2 |
| C35U C72U | -0.649 |

| Variant | polymerase ribozyme fitness (log ratio) |
| --- | --- |
| C35U | -0.0953 |
| C35G | -3.25 |
| C35U G74C C99U | -4.12 |
| C36A C95U C125G U127C | ≤ -4.2 |
| C35U A41C C105A | -4.09 |
| C36A G117U U148C | ≤ -4.2 |
| C35U C57U | 0.194 |
| C35U C57A | 0.0108 |
| C35U C75U G83A G84A C95U C96U | -1.5 |
| C35U A37C U55A C95U | -1.32 |
| C36U A49U U82A A107C G133C | ≤ -4.2 |
| C35U G58U G74A G80U G83A C116G | ≤ -4.2 |
| C35U A39G G84C A106G A120U G152A | ≤ -4.2 |
| C35U A49G U53A C87U A89C C95U C132A A142C | ≤ -4.2 |
| C35G C76U G92A C123G A137U | ≤ -4.2 |
| C36A C93G C125A | ≤ -4.2 |
| C35U U78A G128A | ≤ -4.2 |
| C36U C54A G68A G71A C95G A115U A122G | ≤ -4.2 |
| C35U C76A C95U U148A | ≤ -4.2 |
| C36U A40G C108G G140A | ≤ -4.2 |
| C36G C95A | -3.65 |
| C35A U134C | -3.61 |
| C36U A37U U56A A91C C116G | ≤ -4.2 |
